Results from patent US20080118509A1 (CEPHALON AUSTRALIA, published 2008).

Target: T1, CEA (180 KDa glycoprotein purified from colorectal tumour liver metastases by affinity chromatography with … (UniProt P06731 35-685))
T1 construct: Native glycoprotein dried onto microtitre plates; also called purified CEA
T1 sequence (looked up): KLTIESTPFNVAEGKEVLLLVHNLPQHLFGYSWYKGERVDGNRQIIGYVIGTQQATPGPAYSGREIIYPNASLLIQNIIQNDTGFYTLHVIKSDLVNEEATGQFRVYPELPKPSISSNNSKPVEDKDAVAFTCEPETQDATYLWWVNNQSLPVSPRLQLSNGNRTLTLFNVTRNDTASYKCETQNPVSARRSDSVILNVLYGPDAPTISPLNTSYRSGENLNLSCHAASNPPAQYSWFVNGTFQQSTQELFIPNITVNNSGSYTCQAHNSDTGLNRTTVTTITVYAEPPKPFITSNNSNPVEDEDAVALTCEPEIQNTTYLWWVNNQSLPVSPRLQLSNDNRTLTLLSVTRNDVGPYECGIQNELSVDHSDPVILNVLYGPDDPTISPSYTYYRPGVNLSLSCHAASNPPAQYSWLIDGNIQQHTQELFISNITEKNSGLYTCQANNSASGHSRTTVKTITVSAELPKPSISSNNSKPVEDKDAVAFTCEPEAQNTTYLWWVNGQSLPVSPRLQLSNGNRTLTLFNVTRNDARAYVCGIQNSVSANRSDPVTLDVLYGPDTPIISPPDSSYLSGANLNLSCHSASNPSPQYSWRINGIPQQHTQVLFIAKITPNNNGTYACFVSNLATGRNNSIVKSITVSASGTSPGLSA
Experiment: ELISA, antigen dried onto microtitre plates (FIG. 4)
Description: (§1) The C14 antigen (90 KDa glycoprotein purified from saliva by affinity chromatography on C14 monoclonal), CEA (180 KDa glycoprotein purified from colorectal tumour live metastases by affinity chromatography with 365 mab) and glycolipid extract (glycolipid extracted in 3:1 methanol chloroform w/v from colorectal tumours) were dried onto microtitre plates by overnight incubation at 37° C. Binding of SC104 mab was assayed by ELISA and results expressed as absorbance 405 nm. SC101 and anti-CEA antibodies are included as positive controls.
as §1, with “Binding to purified antigen preparations. The” for “The”, “ELISA” for “ELISA and results expressed”, “described above.” for “absorbance 405 nm. SC101 and anti-CEA antibodies are included as positive controls.”

binding result: no binding
B1: SC104 monoclonal antibody (antibody, V domains shown)
VH: DVQLQESGPDLVKPSQSLSLTCTVTGYSITSGYSWHWVRQFPGNKMEWMGHIHFSGRPTYNPSLSSRISITRDTSKNQFLLQLKFVTTEDTSTYFCARKGKGSDDGLNYWGQGISVTVSS
VL: ENVLTQSPVIMSASPGEKVTMTCSASSSLSYIHWYQQKSRTSPKLWIYDTSNLASGVPGRFSGSGSGNSYSLTISSMEAEDVATYYCFQGSEYPLTFGGGTKLEMT
notes: Mouse IgG1 mab with kappa light chain, from hybridoma SC104/1E9; also called SC104 mab; SC104 antibody
